1 protein from US20050106100 can be followed below.

Data set [1] has as its target T1, Ac-PLG˜Hphe-OL-Ambh-Hynic.
T1 chain: PLGXXL

Data set [2] has as its target T2, Ac-Csa-PLG˜Hphe-YL-Ambh-Hynic (not fully specified).
T2 chain: XPLGXYL

Data set [3] has as its target T3, Ac-PLG˜Hphe-YL-Hynic.
T3 chain: PLGXYL

The target of data set [4] is T4, Ac-POG˜Hphe-L-Hynic.
T4 chain: PXGXL

For data set [5], the target named is T5, Ac-NGlu-POG˜Hphe-L-Hynic (not fully specified).
T5 chain: XPXGXL

Data set [6] deals with T6, Ac-NGlu-PLG˜Hphe-YL-Ambh-Hynic (not fully specified).
T6 chain: XPLGXYL

Data set [7] addresses T7, Ac-POG˜Hphe-L-Ambh-Hynic.
T7 chain: PXGXL

For data set [8], the target named is T8, Ac-PLG˜Hphe-YL-Ahxh-Hynic (not fully specified).
T8 chain: PLGXYL

Where only a bound is given, the exact number is not on record here.

B1: mouse MMP9 (protein)
chain: FQTFKGLKWDHHNITYWIQNYSEDLPRDMIDDAFARAFAVWGEVAPLTFTRVYGPEADIVIQFGVAEHGDGYPFDGKDGLLAHAFPPGAGVQGDAHFDDDELWSLGKGVVIPTYYGNSNGAPCHFPFTFEGRSYSACTTDGRNDGTPWCSTTADYDKDGKFGFCPSERLYTEHGNGEGKPCVFPFIFEGRSYSACTTKGRSDGYRWCATTANYDQDKLYGFCPTRVDATVVGGNSAGELCVFPFVFLGKQYSSCTSDGRRDGRLWCATTSNFDTDKKWGFCPDQGYSLFLVAAHEFGHALGLDHSSVPEALMYPLYSYLEGFPLNKDDIDGIQYLYGRGSKPDPRPPATTTTEPQPTAPPTMCPTIPPTAYPTVGPTVGPTGAPSPGPTSSPSPGPTGAPSPGPTAPPTAGSSEASTESLSPADNPCNVDVFDAIAEIQGALHFFKDGWYWKFLNHRGSPLQGPFLTARTWPALPATLDSAFEDPQTKRVFFFSGRQMWVYTGKTVLGPRSLDKLGLGPEVTHVSGLLPRRLGKALLFSKGRVWRFDLKSQKVDPQSVIRVDKEFSGVPWNSHDIFQYQDKAYFCHGKFFWRVSFQNEVNKVDHEVNQVDDVGYVTYDLLQCP
Consider B1, for which the Kcat/Km in data set [1] is 48000 M⁻¹ s⁻¹; in data set [2] it was 31000 M⁻¹ s⁻¹; in data set [3], above 100000 M⁻¹ s⁻¹; in data set [4] it was 897 M⁻¹ s⁻¹; in data set [5], 571 M⁻¹ s⁻¹; in data set [6], above 100000 M⁻¹ s⁻¹. In addition, the Kcat/Km was 14400 M⁻¹ s⁻¹ in data set [7] and above 100000 M⁻¹ s⁻¹ in data set [8].
